Drawing on patent publication US20160024487, this text covers FXa kcat/KM for 2 proteins.

In data set [1] the target is T1, Lys(Dnp)-ATNATWHPRIVGG-Lys(Abz).
T1 chain: KATNATWHPRIVGGK

Data set [2] addresses T2, Lys(Dnp)-ATNATLKPRIVGG-Lys(Abz).
T2 chain: KATNATLKPRIVGGK

Data set [3] concerns the target T3, Lys(Dnp)-ATNATMHPRIVGG-Lys(Abz).
T3 chain: KATNATMHPRIVGGK

The target of data set [4] is T4, Lys(Dnp)-ATNATAIPRIVGG-Lys(Abz).
T4 chain: KATNATAIPRIVGGK

For data set [5], the target named is T5, Lys(Dnp)-ATNATWKPRIVGG-Lys(Abz).
T5 chain: KATNATWKPRIVGGK

The target in data set [6] is T6, Lys(Dnp)-ATNATVQPRIVGG-Lys(Abz).
T6 chain: KATNATVQPRIVGGK

Data set [7] has as its target T7, Lys(Dnp)-ATNATIRPRIVGG-Lys(Abz).
T7 chain: KATNATIRPRIVGGK

Data set [8] has as its target T8, Lys(Dnp)-ATNATYSPRIVGG-Lys(Abz).
T8 chain: KATNATYSPRIVGGK

The target of data set [9] is T9, Lys(Dnp)-ATNATFTPRIVGG-Lys(Abz).
T9 chain: KATNATFTPRIVGGK

The target in data set [10] is T10, Lys(Dnp)-ATNATIQPRIVGG-Lys(Abz).
T10 chain: KATNATIQPRIVGGK

Data set [11] concerns the target T11, Lys(Dnp)-ATNATWRPRIVGG-Lys(Abz).
T11 chain: KATNATWRPRIVGGK

Data set [12] deals with T12, Lys(Dnp)-ATNATIFPRIVGG-Lys(Abz).
T12 chain: KATNATIFPRIVGGK

The target of data set [13] is T13, Lys(Dnp)-ATNATMGPRIVGG-Lys(Abz).
T13 chain: KATNATMGPRIVGGK

The target in data set [14] is T14, Lys(Dnp)-ATNATIVPRIVGG-Lys(Abz).
T14 chain: KATNATIVPRIVGGK

Data set [15] concerns the target T15, Lys(Dnp)-ATNATMIPRIVGG-Lys(Abz).
T15 chain: KATNATMIPRIVGGK

Data set [16] deals with T16, Lys(Dnp)-ATNATFFPRIVGG-Lys(Abz).
T16 chain: KATNATFFPRIVGGK

Data set [17] addresses T17, Lys(Dnp)-ATNATPWPRIVGG-Lys(Abz).
T17 chain: KATNATPWPRIVGGK

In data set [18] the target is T18, Lys(Dnp)-ATNATNEPRIVGG-Lys(Abz).
T18 chain: KATNATNEPRIVGGK

Data set [19] concerns the target T19, Lys(Dnp)-ATNATHHPRIVGG-Lys(Abz).
T19 chain: KATNATHHPRIVGGK

In data set [20] the target is T20, Lys(Dnp)-ATNATGNPRIVGG-Lys(Abz).
T20 chain: KATNATGNPRIVGGK

Data set [21] has as its target T21, Lys(Dnp)-ATNATKNPRIVGG-Lys(Abz).
T21 chain: KATNATKNPRIVGGK

Data set [22] concerns the target T22, Lys(Dnp)-ATNATTQPRIVGG-Lys(Abz).
T22 chain: KATNATTQPRIVGGK

Data set [23] deals with T23, Lys(Dnp)-ATNATKTPRIVGG-Lys(Abz).
T23 chain: KATNATKTPRIVGGK

The target of data set [24] is T24, Lys(Dnp)-ATNATREPRIVGG-Lys(Abz).
T24 chain: KATNATREPRIVGGK

Data set [25] addresses T25, Lys(Dnp)-ATNATPIPRIVGG-Lys(Abz).
T25 chain: KATNATPIPRIVGGK

Data set [26] has as its target T26, Lys(Dnp)-ATNATGLPRIVGG-Lys(Abz).
T26 chain: KATNATGLPRIVGGK

Data set [27] addresses T27, Lys(Dnp)-ATNATMLPRIVGG-Lys(Abz).
T27 chain: KATNATMLPRIVGGK

The target in data set [28] is T28, Lys(Dnp)-ATNATANPRIVGG-Lys(Abz).
T28 chain: KATNATANPRIVGGK

Data set [29] deals with T29, Lys(Dnp)-ATNATTRPRIVGG-Lys(Abz).
T29 chain: KATNATTRPRIVGGK

Data set [30] deals with T30, Lys(Dnp)-ATNATRNPRIVGG-Lys(Abz).
T30 chain: KATNATRNPRIVGGK

The target in data set [31] is T31, Lys(Dnp)-ATNATNWPRIVGG-Lys(Abz).
T31 chain: KATNATNWPRIVGGK

Data set [32] deals with T32, Lys(Dnp)-ATNATNAPRIVGG-Lys(Abz).
T32 chain: KATNATNAPRIVGGK

For data set [33], the target named is T33, Lys(Dnp)-ATNATMWPRIVGG-Lys(Abz).
T33 chain: KATNATMWPRIVGGK

For data set [34], the target named is T34, Lys(Dnp)-ATNATRLPRIVGG-Lys(Abz).
T34 chain: KATNATRLPRIVGGK

For data set [35], the target named is T35, Lys(Dnp)-ATNATTMPRIVGG-Lys(Abz).
T35 chain: KATNATTMPRIVGGK

Data set [36] has as its target T36, Lys(Dnp)-ATNATASPRIVGG-Lys(Abz).
T36 chain: KATNATASPRIVGGK

Data set [37] concerns the target T37, Lys(Dnp)-ATNATDTPRIVGG-Lys(Abz).
T37 chain: KATNATDTPRIVGGK

In data set [38] the target is T38, Lys(Dnp)-ATNATWYPRIVGG-Lys(Abz).
T38 chain: KATNATWYPRIVGGK

Data set [39] deals with T39, Lys(Dnp)-ATNATAHPRIVGG-Lys(Abz).
T39 chain: KATNATAHPRIVGGK

Data set [40] deals with T40, Lys(Dnp)-ATNATMSPRIVGG-Lys(Abz).
T40 chain: KATNATMSPRIVGGK

Data set [41] deals with T41, Lys(Dnp)-ATNATRWPRIVGG-Lys(Abz).
T41 chain: KATNATRWPRIVGGK

B1: Human plasma purified Factor Xa (protein)
chain 1: ANSFLEEMKKGHLERECMEETCSYEEAREVFEDSDKTNEFWNKYKDGDQCETSPCQNQGKCKDGLGEYTCTCLEGFEGKNCELFTRKLCSLDNGDCDQFCHEEQNSVVCSCARGYTLADNGKACIPTGPYPCGKQTLER
chain 2: IVGGQECKDGECPWQALLINEENEGFCGGTILSEFYILTAAHCLYQAKRFKVRVGDRNTEQEEGGEAVHEVEVVIKHNRFTKETYDFDIAVLRLKTPITFRMNVAPACLPERDWAESTLMTQKTGIVSGFGRTHEKGRQSTRLKMLEVPYVDRNSCKLSSSFIITQNMFCAGYDTKQEDACQGDSGGPHVTRFKDTYFVTGIVSWGEGCARKGKYGIYTKVTAFLKWIDRSMKTRGLPKAKSHAPEVITSSPLK
As to B1, the FXa kcat/KM in [1] turned out to be 42 M⁻¹ s⁻¹; in data set [2], 72 M⁻¹ s⁻¹; in data set [3], 290 M⁻¹ s⁻¹; in data set [4], 220 M⁻¹ s⁻¹; in data set [5], 41 M⁻¹ s⁻¹; in [6] it was 250 M⁻¹ s⁻¹. The FXa kcat/KM came out at 760 M⁻¹ s⁻¹ in data set [7]; 41 M⁻¹ s⁻¹ in [8]; 49 M⁻¹ s⁻¹ in [9]; 1700 M⁻¹ s⁻¹ in [10]; 800 M⁻¹ s⁻¹ in data set [11]; 130 M⁻¹ s⁻¹ in data set [12]. Further, the FXa kcat/KM amounted to 54 M⁻¹ s⁻¹ in [13]; 360 M⁻¹ s⁻¹ in data set [14]; 220 M⁻¹ s⁻¹ in [15]; 48 M⁻¹ s⁻¹ in data set [16]; 1300 M⁻¹ s⁻¹ in [17].

B2: Human plasma purified Factor Xa (Molecular Innovations, Inc) (protein)
chain 1: ANSFLEEMKKGHLERECMEETCSYEEAREVFEDSDKTNEFWNKYKDGDQCETSPCQNQGKCKDGLGEYTCTCLEGFEGKNCELFTRKLCSLDNGDCDQFCHEEQNSVVCSCARGYTLADNGKACIPTGPYPCGKQTLER
chain 2: IVGGQECKDGECPWQALLINEENEGFCGGTILSEFYILTAAHCLYQAKRFKVRVGDRNTEQEEGGEAVHEVEVVIKHNRFTKETYDFDIAVLRLKTPITFRMNVAPACLPERDWAESTLMTQKTGIVSGFGRTHEKGRQSTRLKMLEVPYVDRNSCKLSSSFIITQNMFCAGYDTKQEDACQGDSGGPHVTRFKDTYFVTGIVSWGEGCARKGKYGIYTKVTAFLKWIDRSMKTRGLPKAKSHAPEVITSSPLK
Turning to B2, the FXa kcat/KM came to 20 M⁻¹ s⁻¹ in data set [18]; 25 M⁻¹ s⁻¹ in [19]; 52 M⁻¹ s⁻¹ in [20]; 64 M⁻¹ s⁻¹ in [21]; 17 M⁻¹ s⁻¹ in data set [22]; 72 M⁻¹ s⁻¹ in data set [23]. The FXa kcat/KM in data set [24] was 2400 M⁻¹ s⁻¹; in data set [25], 590 M⁻¹ s⁻¹; in [26] it was 78 M⁻¹ s⁻¹; in data set [27], 530 M⁻¹ s⁻¹; in data set [28] it was 78 M⁻¹ s⁻¹; in data set [29] it was 37 M⁻¹ s⁻¹. Further, the FXa kcat/KM amounted to 1700 M⁻¹ s⁻¹ in data set [30]; 86 M⁻¹ s⁻¹ in [31]; 17 M⁻¹ s⁻¹ in data set [32]; 630 M⁻¹ s⁻¹ in data set [33]; 1400 M⁻¹ s⁻¹ in data set [34]; 13 M⁻¹ s⁻¹ in data set [35]. Besides, the FXa kcat/KM in data set [36] was found to be 310 M⁻¹ s⁻¹; in data set [37], 6.4 M⁻¹ s⁻¹; in [38] it was 60 M⁻¹ s⁻¹; in data set [39] it was 140 M⁻¹ s⁻¹; in data set [40], 570 M⁻¹ s⁻¹; in data set [17] it was 1300 M⁻¹ s⁻¹. The protein further gave an FXa kcat/KM in data set [41] of 3000 M⁻¹ s⁻¹.
